This passage reports protein stability index results from the supplement of paper PMC10724198.

± gives the standard deviation of the averaged measurements.

The subject of data set [1] is Saccharomyces cerevisiae. Put plainly: protein stability index of tFT-peptide fusion (C-terminal peptide) (PSI (0-1 scale)); higher = more stable (slower turnover). As to the method: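 MPS profiling in S. cerevisiae of the tFT-X12 degron library: putative degron peptides plus stable controls, 12 aa, fused to the C-terminus of a sfGFP-mCherry timer. Cells are FACS-sorted into 8 mCherry/sfGFP bins and deep-sequenced. PSI runs from 0 (unstable) to 1 (stable). Backgrounds are wild type, das1Δ and doa10Δ at 30 °C, and wild type, das1Δ, cdc34-1 and cdc53-1 at 37 °C; 2-3 technical replicates each.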

Data set [2] has as its system Saccharomyces cerevisiae. The data set is described as above. The settings on record: genetic background: wild type; temperature: 30 C.
Where [3] appears, read: genetic background: cdc34-1, temperature: 37 C.
The mark [4] stands for this setting: genetic background: cdc53-1, temperature: 37 C.
The mark [5] stands for this setting: genetic background: das1 deletion, temperature: 30 C.
The mark [6] stands for this setting: genetic background: das1 deletion, temperature: 37 C.
The mark [7] stands for this setting: genetic background: doa10 deletion, temperature: 30 C.
Setting [8] is: genetic background: wild type, temperature: 30 C.
Setting [9] is: genetic background: wild type, temperature: 37 C.
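Also: PSI is a weighted mean of sequencing reads over stability bins, variants kept only with over 10 reads, mCherry proximal and sfGFP distal, peptide attached via GGGS linker.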

For the sequence VFCSRSLISVVS, the protein stability index in the data set on Saccharomyces cerevisiae [1] (setting [3]) amounted to 0.193 ± 0.03; in the data set on Saccharomyces cerevisiae [1] (setting [4]), 0.243 ± 0.072; in the data set on Saccharomyces cerevisiae [1] (setting [5]), 0.208 ± 0.041; in the data set on Saccharomyces cerevisiae [1] (setting [6]) it was 0.355 ± 0.007; with Saccharomyces cerevisiae [1] (setting [7]), 0.165 ± 0.014; in the data set with Saccharomyces cerevisiae [1] (setting [8]), 0.192 ± 0.03. In addition, the figures for the protein stability index in the data set with Saccharomyces cerevisiae [1] (setting [9]) and in the data set with Saccharomyces cerevisiae [2] were 0.303 ± 0.011 and 0.313 ± 0.027, respectively.
Take VFFCLCLCLFFV: the protein stability index came out at 0.432 ± 0.023 with Saccharomyces cerevisiae [1] (setting [3]); 0.463 ± 0.012 in the data set on Saccharomyces cerevisiae [1] (setting [4]); 0.341 ± 0.018 with Saccharomyces cerevisiae [1] (setting [5]); 0.473 ± 0.028 with Saccharomyces cerevisiae [1] (setting [6]); 0.299 ± 0.0062 in the data set on Saccharomyces cerevisiae [1] (setting [7]); 0.314 ± 0.022 in the data set on Saccharomyces cerevisiae [1] (setting [8]). The protein stability index in the data set on Saccharomyces cerevisiae [1] (setting [9]) came to 0.45 ± 0.036; in the data set with Saccharomyces cerevisiae [2] it was 0.368 ± 0.031.
For VFFGCIWSIVYN, the protein stability index was determined as 0.247 ± 0.022 in the data set on Saccharomyces cerevisiae [1] (setting [3]); 0.302 ± 0.12 in the data set with Saccharomyces cerevisiae [1] (setting [4]); 0.213 ± 0.035 in the data set on Saccharomyces cerevisiae [1] (setting [5]); 0.41 ± 0.018 with Saccharomyces cerevisiae [1] (setting [6]); 0.181 ± 0.014 with Saccharomyces cerevisiae [1] (setting [7]); 0.229 ± 0.042 with Saccharomyces cerevisiae [1] (setting [8]). Further, the results for the protein stability index in the data set with Saccharomyces cerevisiae [1] (setting [9]) and in the data set with Saccharomyces cerevisiae [2] were 0.377 ± 0.011 and 0.2962 ± 0.0012, respectively.
For VFGARLFLIRLV, the protein stability index with Saccharomyces cerevisiae [1] (setting [3]) came to 0.405 ± 0.059; with Saccharomyces cerevisiae [1] (setting [4]) it was 0.519 ± 0.069; in the data set with Saccharomyces cerevisiae [1] (setting [5]) it was 0.534 ± 0.033; in the data set with Saccharomyces cerevisiae [1] (setting [6]) it was 0.635 ± 0.023; in the data set on Saccharomyces cerevisiae [1] (setting [7]) it was 0.155 ± 0.027; with Saccharomyces cerevisiae [1] (setting [8]) it was 0.14 ± 0.041. In addition, the protein stability index with Saccharomyces cerevisiae [1] (setting [9]) stood at 0.1767 ± 0.00049; in the data set on Saccharomyces cerevisiae [2], 0.223 ± 0.0077.
As to VFLNVLDNNRLC, the protein stability index in the data set on Saccharomyces cerevisiae [1] (setting [3]) worked out at 0.65 ± 0.078; in the data set on Saccharomyces cerevisiae [1] (setting [4]) it was 0.734 ± 0.011; in the data set with Saccharomyces cerevisiae [1] (setting [5]), 0.662 ± 0.025; with Saccharomyces cerevisiae [1] (setting [6]) it was 0.74 ± 0.0031; in the data set on Saccharomyces cerevisiae [1] (setting [7]), 0.323 ± 0.011; with Saccharomyces cerevisiae [1] (setting [8]), 0.331 ± 0.046. Further, the protein stability index in the data set on Saccharomyces cerevisiae [1] (setting [9]) amounted to 0.622 ± 0.028; in the data set on Saccharomyces cerevisiae [2] it was 0.464 ± 0.037.
As to VFLRFVLSFFLL, the protein stability index worked out at 0.542 ± 0.03 in the data set with Saccharomyces cerevisiae [1] (setting [3]); 0.629 ± 0.023 in the data set with Saccharomyces cerevisiae [1] (setting [4]); 0.526 ± 0.023 in the data set on Saccharomyces cerevisiae [1] (setting [5]); 0.608 ± 0.0045 in the data set with Saccharomyces cerevisiae [1] (setting [6]); 0.424 ± 0.02 in the data set on Saccharomyces cerevisiae [1] (setting [7]); 0.418 ± 0.013 in the data set with Saccharomyces cerevisiae [1] (setting [8]). Also, the values for the protein stability index in the data set on Saccharomyces cerevisiae [1] (setting [9]) and with Saccharomyces cerevisiae [2] were 0.489 ± 0.0065 and 0.4516 ± 0.001, respectively.
Regarding VFLSLVFFFIIT, the protein stability index was 0.254 ± 0.011 with Saccharomyces cerevisiae [1] (setting [3]); 0.343 ± 0.0077 in the data set with Saccharomyces cerevisiae [1] (setting [4]); 0.282 ± 0.035 in the data set on Saccharomyces cerevisiae [1] (setting [5]); 0.43 ± 0.005 in the data set with Saccharomyces cerevisiae [1] (setting [6]); 0.287 ± 0.013 with Saccharomyces cerevisiae [1] (setting [7]); 0.275 ± 0.019 with Saccharomyces cerevisiae [1] (setting [8]). Also, the protein stability index was found to be 0.392 ± 0.021 in the data set on Saccharomyces cerevisiae [1] (setting [9]) and 0.367 ± 0.026 in the data set on Saccharomyces cerevisiae [2].
On to VFRVLLSLFSTL, for which the protein stability index was 0.657 ± 0.021 in the data set with Saccharomyces cerevisiae [1] (setting [3]); 0.7335 ± 0.0063 in the data set on Saccharomyces cerevisiae [1] (setting [4]); 0.653 ± 0.018 with Saccharomyces cerevisiae [1] (setting [5]); 0.738 ± 0.0053 in the data set on Saccharomyces cerevisiae [1] (setting [6]); 0.289 ± 0.019 in the data set on Saccharomyces cerevisiae [1] (setting [7]); 0.306 ± 0.023 in the data set on Saccharomyces cerevisiae [1] (setting [8]). The protein stability index in the data set with Saccharomyces cerevisiae [1] (setting [9]) is 0.4804 ± 0.0029; with Saccharomyces cerevisiae [2] it was 0.408 ± 0.0095.
Take VFRYWCGIFCLT: the protein stability index with Saccharomyces cerevisiae [1] (setting [3]) came out at 0.688 ± 0.052; in the data set with Saccharomyces cerevisiae [1] (setting [4]) it was 0.701 ± 0.054; in the data set with Saccharomyces cerevisiae [1] (setting [5]), 0.613 ± 0.025; with Saccharomyces cerevisiae [1] (setting [6]), 0.789 ± 0.045; with Saccharomyces cerevisiae [1] (setting [7]), 0.528 ± 0.027; with Saccharomyces cerevisiae [1] (setting [8]) it was 0.547 ± 0.019. Further, the values for the protein stability index in the data set on Saccharomyces cerevisiae [1] (setting [9]) and in the data set on Saccharomyces cerevisiae [2] were 0.6715 ± 0.0057 and 0.478 ± 0.07, respectively.
Regarding VFSAGFSTISLF, the protein stability index with Saccharomyces cerevisiae [1] (setting [3]) is 0.745 ± 0.037; in the data set with Saccharomyces cerevisiae [1] (setting [4]), 0.792 ± 0.03; in the data set with Saccharomyces cerevisiae [1] (setting [5]) it was 0.678 ± 0.049; in the data set on Saccharomyces cerevisiae [1] (setting [6]) it was 0.789 ± 0.012; in the data set with Saccharomyces cerevisiae [1] (setting [7]), 0.6674 ± 0.0061; in the data set with Saccharomyces cerevisiae [1] (setting [8]) it was 0.666 ± 0.012. For the same sequence, the protein stability index came out at 0.741 ± 0.011 in the data set with Saccharomyces cerevisiae [1] (setting [9]) and 0.704 ± 0.39 in the data set with Saccharomyces cerevisiae [2].
With VFSWLAFGFFCS, the protein stability index came to 0.647 ± 0.0029 in the data set on Saccharomyces cerevisiae [1] (setting [3]); 0.69 ± 0.012 in the data set on Saccharomyces cerevisiae [1] (setting [4]); 0.61 ± 0.022 in the data set on Saccharomyces cerevisiae [1] (setting [5]); 0.6821 ± 0.0028 in the data set on Saccharomyces cerevisiae [1] (setting [6]); 0.588 ± 0.024 in the data set on Saccharomyces cerevisiae [1] (setting [7]); 0.601 ± 0.023 in the data set on Saccharomyces cerevisiae [1] (setting [8]). Further, the protein stability index amounted to 0.642 ± 0.033 in the data set on Saccharomyces cerevisiae [1] (setting [9]) and 0.557 ± 0.091 with Saccharomyces cerevisiae [2].
For the sequence VGELYRLRKLHV, the protein stability index amounted to 0.69 ± 0.026 in the data set with Saccharomyces cerevisiae [1] (setting [3]); 0.73 ± 0.013 with Saccharomyces cerevisiae [1] (setting [4]); 0.607 ± 0.02 in the data set with Saccharomyces cerevisiae [1] (setting [5]); 0.728 ± 0.015 in the data set with Saccharomyces cerevisiae [1] (setting [6]); 0.222 ± 0.02 with Saccharomyces cerevisiae [1] (setting [7]); 0.249 ± 0.035 in the data set with Saccharomyces cerevisiae [1] (setting [8]). For the same sequence, the figures for the protein stability index in the data set on Saccharomyces cerevisiae [1] (setting [9]) and in the data set with Saccharomyces cerevisiae [2] were 0.506 ± 0.018 and 0.313 ± 0.035, respectively.
Take VGHVFLGVVWLV: the protein stability index in the data set on Saccharomyces cerevisiae [1] (setting [3]) worked out at 0.44 ± 0.043; in the data set on Saccharomyces cerevisiae [1] (setting [4]) it was 0.573 ± 0.014; in the data set on Saccharomyces cerevisiae [1] (setting [5]) it was 0.457 ± 0.031; with Saccharomyces cerevisiae [1] (setting [6]), 0.6 ± 0.0034; in the data set with Saccharomyces cerevisiae [1] (setting [7]), 0.0977 ± 0.0055; in the data set with Saccharomyces cerevisiae [1] (setting [8]), 0.101 ± 0.013. Moreover, the protein stability index stood at 0.0863 ± 0.011 with Saccharomyces cerevisiae [1] (setting [9]) and 0.163 ± 0.013 in the data set on Saccharomyces cerevisiae [2].
With VGLRLSVIFVVI, the protein stability index in the data set on Saccharomyces cerevisiae [1] (setting [3]) was 0.265 ± 0.019; in the data set with Saccharomyces cerevisiae [1] (setting [4]) it was 0.2985 ± 0.0021; with Saccharomyces cerevisiae [1] (setting [5]) it was 0.213 ± 0.033; with Saccharomyces cerevisiae [1] (setting [6]) it was 0.428 ± 0.027; in the data set with Saccharomyces cerevisiae [1] (setting [7]), 0.195 ± 0.0031; in the data set with Saccharomyces cerevisiae [1] (setting [8]) it was 0.213 ± 0.027. Moreover, the protein stability index in the data set with Saccharomyces cerevisiae [1] (setting [9]) was found to be 0.391 ± 0.049; in the data set on Saccharomyces cerevisiae [2], 0.372 ± 0.038.
With VGVIGWGVLGVG, the protein stability index came out at 0.475 ± 0.04 in the data set with Saccharomyces cerevisiae [1] (setting [3]); 0.548 ± 0.0055 with Saccharomyces cerevisiae [1] (setting [4]); 0.481 ± 0.011 in the data set on Saccharomyces cerevisiae [1] (setting [5]); 0.541 ± 0.011 in the data set with Saccharomyces cerevisiae [1] (setting [6]); 0.4866 ± 0.00011 with Saccharomyces cerevisiae [1] (setting [7]); 0.481 ± 0.013 in the data set on Saccharomyces cerevisiae [1] (setting [8]). For the same sequence, the protein stability index in the data set on Saccharomyces cerevisiae [1] (setting [9]) was determined as 0.536 ± 0.0097; in the data set on Saccharomyces cerevisiae [2], 0.5 ± 0.01.
